Here are results for 2 compounds from patent publication US20260069727A1, “FORMULATIONS FOR RADIOTHERAPY AND DIAGNOSTIC IMAGING AND USE THEREOF IN TREATMENT, DIAGNOSIS AND IMAGING DISEASES” (priority 2022, published 2026).

For data set [1] the following is noted: cited from earlier work.
Data set [2] can be described thus: Radiochemical purity / stability of the formulation by radioHPLC. It is filed as physicochemical. The source says:
The stability of the formulation relates to the stability of the complex, where the radioisotope may undergo dissociation or the complex may undergo radiolysis. The stability of the complex can be measured by considering the radiochemical purity of the formulation. Radiochemical purity is defined as the amount of the radioisotope complexed by the sarcophagine ligand expressed as a percentage of the total amount of the radioisotope present in the formulation. The radioisotope may be present in the formulation as a complex with the sarcophagine ligand, as a free radioisotope or as part of a radiolysis product. […] In the embodiments, described herein, radiochemical purity may be determined by techniques such as radioHPLC, where the amount of the radioisotope in either its complexed or free form is determined and compared with the amount of the radioisotope introduced to the formulation. A person skilled in the art would understand the necessary conditions for separation, analysis and quantification of the formulation by radioHPLC. Nonetheless, in certain embodiments, the mobile phase used to analyse a formulation as disclosed herein by radioHPLC comprises about 0.1% trifluoroacetic acid (TFA) in water. […]
Product stability was monitored up to 96 hours post End of Synthesis (EOS) for 3 validation batches of [^67Cu]Formula(Ib) in an aqueous formulation prepared as outlined above. […]

Data set [3] in a line: Free 67Cu in the formulation by radioTLC. It is filed as physicochemical. The conditions noted are these: batch QC result; acceptance ≤5%. An excerpt: The stability of the complex can also be measured by considering the amount of free copper, i.e. free copper radioisotope that is intended to be complexed with the sarcophagine ligand, present in the formulation. In certain embodiments, the amount of free copper radioisotope present in formulation is not more than about 5%. In other embodiments, the amount of free copper radioisotope present in the formulation is not more than about 4%. In other embodiments, the amount of free copper present in the formulation is not more than about 3%. In other embodiments, the amount of free copper present in the formulation is not more than about 2%. In other embodiments, the amount of free copper present in the formulation is not more than about 1%. In other embodiments, the amount of free ^67Cu present in the formulation is less than about 1%. In other embodiments, the amount of free ^67Cu present in the formulation is less than about 2%.
TLC was performed with a mobile phase of 10 mM NaEDTA in 50 mM phosphate buffer using a silica gel 60 F254 aluminium backed TLC plate with dimensions of 1 cm×10 cm.

A short description of data set [4]: pH by probe (quality control). It is filed as physicochemical. The following applies: batch QC result; acceptance 4.0-8.0.
The nature of data set [5]: Appearance / visible particles in injection (quality control). The conditions noted are these: batch QC result. It is filed as physicochemical.

Entries after “also recorded” stand apart in the source; their conditions may differ.

For `O=C(O)c1cc(O)ccc1O` [gentisic acid, 2,5-dihydroxybenzoic acid], the “pKa (acid dissociation constant)” value in data set [1] is “about 2.5”.

Take `CC(C)CC(NC(=O)CC(O)C(CC(C)C)NC(=O)C(Cc1c[nH]cn1)NC(=O)CNC(=O)C(NC(=O)C(C)NC(=O)C(Cc1c[nH]c2ccccc12)NC(=O)C(CCC(N)=O)NC(=O)C(Cc1ccccc1)NC(=O)CCOCCNC(=O)CCCC(=O)NC12CNCCNCC(C)(CNCCNC1)CNCCNC2)C(C)C)C(N)=O` (stereo not drawn) [[^67Cu]Formula (Ib), metal not drawn]: the “Radiochemical purity by radio-HPLC” value in data set [2] (batch QC result, acceptance ≥90%) was 94.23%. The “radiochemical purity (RPC) over the stability test” value in data set [2] (up to 96 hours post End of Synthesis, 3 validation batches) is given as at least 94.0%. In addition, the “Free [67Cu]Cu2+ by TLC” value in data set [3] was 0%. This compound also registered a pH by probe in data set [4] of 6.72. In addition, the “Appearance/Visible particles in injection” value in data set [5] is “Clear ✓; also recorded: Particle-free ✓”.
